From patent US11466067B2 (priority 2019, dated 2022)

Assays:
[1] = Tablet compression force screening: tablet properties, dimer purity and recovery; type: physicochemical
Description: Various compression forces were used to create F1 tablets (TABLE 31) and F2 tablets (TABLE 32). Dimer purity of the target construct was also examined following compaction into a tablet. […] Dimer recovery was also assessed following dissolution of various tablets at pH 7.0 (FIGS. 20A-20D).
An additional tablet (F3) was created, which was similar to an F1 tablet but with glyceryl dibehenate in place of magnesium stearate (TABLE 33). This substitution was made due to incompatibility of magnesium stearate in dissolution of target constructs in solution.

[2] = test system: circulating cytokines, chemokines, growth factors; type: in vivo, mice
[3] = test system: DSS-induced colitis; type: in vivo, C57BL6/J mice
[4] = test system: cells of the Lamina propria; assay: Cell targeting in the Lamina propria after intraluminal injection (immunofluorescence); type: in vivo, Wistar rats
Description: Rats were anesthetized using inhaled isoflurane and euthanized by inhaled CO2.
Experiments were initiated by making an approximately 4 cm abdominal incision to access the mid-jejunum region of the small intestine. After performing the incision, 50 μl of a prepared solution of the IL-10 delivery construct (typically at about 1 mg/mL) was injected into the intestinal lumen of an area devoid of foodstuffs through a 27-gauge needle using a 1 mL syringe. The mesentery adjacent to the site of injection was labeled with a marker and the intestine was returned to the abdominal cavity, with the incision being closed with clamps.
At specific times, the injected intestine was retrieved, surgically isolated and flushed with a 4° C. isotonic PBS. Washed, excised samples were fixed (4% paraformaldehyde in PBS) overnight at 4° C. before dehydration through graded series of ethanol/water solutions and overnight incubation in chloroform.
Dehydrated tissues were immersed in wax, sectioned, and mounted on poylysine slides and processed for antigen retrieval using sodium citrate. Afterward, sections were permeabilised with 0.2% Triton-X100 in PBS prior to thrice washing in PBS and blocking with 2% BSA+2% serum of the animal the secondary antibodies have been raised. Primary antibodies were diluted in 1% BSA, 0.1% Triton-X100 in PBS and incubated overnight at 4° C. in humidified air. Fluorescent secondary antibodies were diluted in 1% BSA, 0.1% Triton-X100 in PBS and incubated for 2 h at RT prior to processing for confocal microscopy. On occasion, an approximately 1 cm section of intestine at the injection site was collected for biochemical studies.
Proteins for specific cell types were examined by immuno-fluorescence using confocal microscopy. The IL-10 delivery construct components (the carrier, also referred to herein as “cholix,” and IL-10) were followed separately with either a polyclonal antibody (pAb) or monoclonal antibody (mAb) to IL-10 or a pAb or mAb to the carrier domain to allow co-localization with pAb or mAbs available (TABLE 46).

[5] = Phase 1a single ascending dose in healthy male volunteers; type: in vivo, human; settings: 60 and 120 mg
Description: In part B of the study, early data was gathered on the safety and tolerability, pharmacokinetics, pharmacodynamics and early clinical response following multiple ascending doses of the IL-10 delivery construct in Ulcerative Colitis (UC) patients (Part B).
Part A consisted of a single-ascending dose (SAD) escalation in healthy male volunteers. Six cohorts consisting of orally administered single ascending doses were conducted. At each dose level, 6 subjects were enrolled, randomized 2:4 to receive a single dose of placebo or the IL-10 delivery construct on day 1. The doses selected were 1 mg, 3 mg, 10 mg, 30 mg, 60 mg, and 120 mg.
Pre-clinical models have identified peripheral IL-1Ra production as a marker of IL-10 engagement to IL-10R in mucosal lymphocytes. To determine if the IL-10 delivery construct was actively transported across the epithelial cell lining into the Lamina propria and able to interact with lymphocytes, the levels of IL-1Ra induction was assessed.

[6] = test system: T lymphocytes and macrophages; assay: Cellular target in Lamina propria (CD3, F4/80, pSTAT3) after oral gavage; type: in vivo, mouse

B1: IL-10 delivery construct: recombinant homodimeric fusion protein: N-terminal methionine, cholix386 domain, polyGlySer spacer, recombinant human IL-10 (protein)
chain: MVEEALNIFDECRSPCSLTPEPGKPIQSKLSIPSDVVLDEGVLYYSMTINDEQNDIKDEDKGESIITIGEFATVRATRHYVNQDAPFGVIHLDITTENGTKTYSYNRKEGEFAINWLVPIGEDSPASIKISVDELDQQRNIIEVPKLYSIDLDNQTLEQWKTQGNVSFSVTRPEHNIAISWPSVSYKAAQKEGSRHKRWAHWHTGLALCWLVPMDAIYNYITQQNCTLGDNWFGGSYETVAGTPKVITVKQGIEQKPVEQRIHFSKGNAMSALAAHRVCGVPLETLARSRKPRDLTDDLSCAYQAQNIVSLFVATRILFSHLDSVFTLNLDEQEPEVAERLSDLRRINENNPGMVTQVLTVARQIYNDYVTHHPGLTPEQTSAGAQAGGGGSGGGGSGGGGSPGQGTQSENSCTHFPGNLPNMLRDLRDAFSRVKTFFQMKDQLDNLLLKESLLEDFKGYLGCQALSEMIQFYLEEVMPQAENQDPDIKAHVNSLGENLKTLRLRLRRCHRFLPCENKSKAVEQVKNAFNKLQEKGIYKAMSEFDIFINYIEAYMTMKIRN
modifications: homodimer
robustness of protein to compaction, granulation and tableting (dimer purity) [1]: robust to compaction and granulation, although some aggregation was observed in final tablet form
plasma IL-31 ([2]; 0.3 mg/kg): near-base line levels
plasma TGF-β relative to Vehicle ([2]; 3.0 mg/kg): reduced
plasma IL-3 ([2]; 9.0 mg/kg): near-base line levels
plasma IL-4 ([2]; 9.0 mg/kg): near-base line levels
production of IL-12 and IL-17 ([2]; 9.0 mg/kg): prevented the production
plasma IL-28 ([2]; 3.0 and 9.0 mg/kg): near-base line levels
plasma MCSF ([2]; highest dose (9.0 mg/kg)): reduced
oxazolone-induced changes in LIX, LIF, IP10 ([2]; mouse, in vivo): mitigated
oxazolone-induced increase in plasma GCSF/CSF3 ([2]; mouse, in vivo): attenuated
plasma IL-13 and IL-15 vs Vehicle ([2]; mouse, in vivo): trend towards an IL-10 delivery construct-mediated decrease
edema width, mid colon ([3]; 30 mg/kg): significantly improved
hyperplasia, mid colon ([3]; 30 mg/kg): significantly improved
mucosal thickness, mid colon ([3]; 30 mg/kg): significantly improved
colon length vs vehicle ([3]; 10 and 30 mg/kg, p<0.05): Significant improvement
DSS-induced body weight loss ([3]; construct 30 mg/kg, CsA 75 mg/kg, oral q.d.): significantly reduced DSS-induced weight loss
time by which extensive amount reached the Lamina propria ([4]; 1-minute pulse, intraluminal injection): ≤ 15 min
co-localization with LAMP1-positive lysosomes in enterocytes ([4]; 15-minute time course): little or no co-localization
co-localization with CD3 antigen (T lymphocytes) ([4]; Lamina propria): striking co-localizations
co-localization with CD19-positive cells (B-lymphocytes) ([4]; Lamina propria): failed to co-localize
co-localization with CD34-positive cells (endothelia) ([4]; Lamina propria): failed to co-localize
co-localization with CD11c antigen (dendritic cells) ([4]; Lamina propria, rat jejunum): did not co-localize with CD11c antigen to any striking extent
IL-1Ra induction at high dose [5]: loss of immunomodulatory activity
CD3+ cells co-localizing with pSTAT3 ([6]; 40 min after oral gavage): moderate proportion
F4/80 (macrophage) co-localization with pSTAT3 ([6]; after oral gavage): extensive co-localization with pSTAT3
